Experimental data published in patent publication US5866392A, “Cellobiose oxidase, and enzymatic agent and a process for treating paper pulp” (priority 1992, dated 1999).

Key:
[1] = substrate: OC[C@H]1O[C@@H](O[C@H]2[C@H](O)[C@@H](O)C(O)O[C@@H]2CO)[C@H](O)[C@@H](O)[C@H]1O; assay: purified protein, by the assay type; conditions: other: sugar + 90 μM DCPIP, 0.1M sodium phosphate buffer, pH 7.5, 40° C.
Method: (§2) The measurements were performed in 0.1M sodium phosphate buffer at pH 7.5 at 40° C. 450 μl of a mixture of 100 μM of 2,6-Dichlorophenol-indophenol (DCPIP, Merck), 250 μM of cellobiose (Sigma) were mixed with 50 μl enzyme. Units of activity equals μmol cellobiose oxidized (DCPIP reduced) per min.
(§3) All measurements were performed in 0.1M sodium phosphate buffer, pH 7.5, at 40° C. […] The reactions were monitored for 400 s as changes in absorbance at the appropirate wavelength (see above). […] The catalytic constants (kcat) were expressed as mol of oxidized cellobiose/s/mol of enzyme. […] The kinetic constants were determined using Lineweaver-Burke plots and were the result of dual determinations.

[2] = substrate: OC[C@H]1O[C@@H](O[C@H]2[C@H](O)[C@@H](O)[C@H](O[C@H]3[C@H](O)[C@@H](O)[C@H](O[C@H]4[C@H](O)[C@@H](O)C(O)O[C@@H]4CO)O[C@@H]3CO)O[C@@H]2CO)[C@H](O)[C@@H](O)[C@@H]1O; assay: purified protein, by the assay type; conditions: other: sugar + 90 μM DCPIP, 0.1M sodium phosphate buffer, pH 7.5, 40° C.
[3] = substrate: OC[C@H]1O[C@H](O[C@H]2[C@H](O)[C@@H](O)[C@H](O)O[C@@H]2CO)[C@H](O)[C@@H](O)[C@@H]1O; assay: purified protein, by the assay type; conditions: other: sugar + 90 μM DCPIP, 0.1M sodium phosphate buffer, pH 7.5, 40° C.
Method: as §2, §3

[4] = substrate: CN(C)c1ccc2nc3ccc(=[N+](C)C)cc-3sc2c1; assay: purified protein, by the assay type; conditions: other: electron acceptor + 225 μM cellobiose, 0.1M sodium phosphate buffer, pH 7.5, 40° C.
[5] = substrate: OC[C@H]1O[C@@H](O[C@H]2[C@H](O)[C@@H](O)[C@H](O[C@H]3[C@H](O)[C@@H](O)C(O)O[C@@H]3CO)O[C@@H]2CO)[C@H](O)[C@@H](O)[C@@H]1O; assay: purified protein, by the assay type; conditions: other: sugar + 90 μM DCPIP, 0.1M sodium phosphate buffer, pH 7.5, 40° C.
[6] = substrate: CC(C)(C)C1=CC(=O)C(=O)C(C(C)(C)C)=C1; assay: purified protein, by the assay type; conditions: other: electron acceptor + 225 μM cellobiose, 0.1M sodium phosphate buffer, pH 7.5, 40° C.
[7] = substrate: O=C1C(Cl)=CC(=Nc2ccc(O)cc2)C=C1Cl; assay: purified protein, by the assay type; conditions: other: electron acceptor + 225 μM cellobiose, 0.1M sodium phosphate buffer, pH 7.5, 40° C.
Method: as §2, §3

[8] = substrate: OC[C@H]1O[C@@H](O[C@H]2[C@H](O)[C@@H](O)C(O)O[C@@H]2CO)[C@H](O)[C@@H](O)[C@@H]1O; assay: purified protein, by the assay type; conditions: other: sugar + 90 μM DCPIP, 0.1M sodium phosphate buffer, pH 7.5, 40° C.
Method: as §2, §3

[9] = substrate: OC[C@@H](O)[C@@H](O[C@@H]1O[C@H](CO)[C@@H](O[C@@H]2O[C@H](CO)[C@@H](O[C@@H]3O[C@H](CO)[C@@H](O[C@@H]4O[C@H](CO)[C@@H](O[C@@H]5O[C@H](CO)[C@@H](O)[C@H](O)[C@H]5O)[C@H](O)[C@H]4O)[C@H](O)[C@H]3O)[C@H](O)[C@H]2O)[C@H](O)[C@H]1O)[C@H](O)[C@@H](O)CO; assay: Coupled cellobiose oxidase/DCPIP assay for cellulases; type: biochemical; conditions: other: CBH II; reduced cellodextrin substrate
From the text: (§1) The ability of the cellobiose oxidase to oxidize cellodextrins by means of an electron acceptor was utilized in an assay for cellulases. […] With this assay the kinetic constants for reduced cellodextrins of 5 different cellulases have been determined (table 2). […] The enzymes show very different substrate specificity, some of them requiring quite long substrates making it impossible to use the umbelliferyl cellobiosides and lactosides available for steady state kinetic. […] The inhibition constants were determined for two cellulases using the developed assay.

[10] = substrate: OC[C@@H](O)[C@@H](O[C@@H]1O[C@H](CO)[C@@H](O[C@@H]2O[C@H](CO)[C@@H](O[C@@H]3O[C@H](CO)[C@@H](O)[C@H](O)[C@H]3O)[C@H](O)[C@H]2O)[C@H](O)[C@H]1O)[C@H](O)[C@@H](O)CO; assay: as above; type: biochemical; conditions: other: CBH II; reduced cellodextrin substrate
From the text: as §1

[11] = substrate: OC[C@@H](O)[C@@H](O[C@@H]1O[C@H](CO)[C@@H](O[C@@H]2O[C@H](CO)[C@@H](O[C@@H]3O[C@H](CO)[C@@H](O[C@@H]4O[C@H](CO)[C@@H](O)[C@H](O)[C@H]4O)[C@H](O)[C@H]3O)[C@H](O)[C@H]2O)[C@H](O)[C@H]1O)[C@H](O)[C@@H](O)CO; assay: as above; type: biochemical; conditions: other: CBH II; reduced cellodextrin substrate
From the text: as §1

Protein	Km [1] [µM]	kcat [1] [s⁻¹]	Km [2] [µM]	Km [3]	kcat [3] [s⁻¹]	Km [4] [µM]	kcat [4] [s⁻¹]	Km [5] [µM]	Km [6] [µM]	Km [7] [µM]	kcat [7] [s⁻¹]	Km [8] [µM]	kcat [8] [s⁻¹]	Km [9] [µM]	Km [10] [µM]	Km [11] [µM]
Humicola insolens cellobiose oxidase (CBO, 92 kDa, pI 4.0) (Mycothermus thermophilus) (protein) QATGDAYTDSETGIKFQTWSPDPQFTFGLALPPDALEKDATEYIGLLRCTRADPSDPGYCGLSHGQVGQMTQSLLLVAWAYENQVYTSFRYATGYTLPGLYTGNAKLTQLSVNITDTSFELIYRCENCFSWEHEGSTGSSSTSQGYLVLGRASARRGVVGPTCPDTATFGFHDNGFGQWGVGLENAVSEQYSEWASLPGLTVETTCEGSGPGEAQCVPAPEETYDYIVVGAGAGGIPVADKLSEAGHKVLLIEKGPPSTGRWQGTMKPEWLEGTDLTRFDVPGLCNQIWVDSAGIACTDTDQMAGCVLGGGTAVNAGLWWKPIDLDWDENFPEGWHSQDLAAATERVFERIPGTWHPSMDGKLYRDEGYKVLSSGLAESGWKEVVANEVPNEKNRTFAHTHFMFAGGERNGPLATYLVSADARENFSLWTNTAVRRAVRTGGKVTGVELECLTDGGYSGIVKLNEGGGVIFSAGAFGSAKLLFRSGIGPEDQLRVVASSKDGEDFIDEKDWIKLPVGYNLIDHLNTDLILTHPDVVFYDFYEAWTTPIEADKQLYLEQRSGILAQAAPNIGPMMWEQVTPSDGITRQFQWTARVEGDSRFTNSSHAMTLSQYLGRGVVSRGRATITQGLVTTVAEHPYLHNAGDKEAVIQGIKNLIESLNVIPNITWVLPPPGSTVEEYVDSLLVSASARRSNHWMGTAKLGTDDGRYGGTSVVDLDTKVYGTDNLFVVDASIFPGMSTGNPSAMIVIAAEQAAERILKLRK	51	10	21	11,000 μM	0.83	18	1.85	19	132	26	12	11	10			
CBH II (cellulase) (Mycothermus thermophilus) (protein) APVVEERQNCAPTWGQCGGIGFNGPTCCQSGSTCVKQNDWYSQCLPGSQVTTTSTTSTSSSSTTSRATSTTRTGGVTSITTAPTRTVTIPGGATTTASYNGNPFEGVQLWANNYYRSEVHTLAIPQITDPALRAAASAVAEVPSFQWLDRNVTVDTLLVETLSEIRAANQAGANPPYAAQIVVYDLPDRDCAAAASNGEWAIANNGANNYKGYINRIREILISFSDVRTILVIEPDSLANMVTNMNVAKCSGAASTYRELTIYALKQLDLPHVAMYMDAGHAGWLGWPANIQPAAELFAKIYEDAGKPRAVRGLATNVANYNAWSISSPPPYTSPNPNYDEKHYIEAFRPLLEARGFPAQFIVDQGRSGKQPTGQKEWGHWCNAIGTGFGMRPTANTGHQYVDAFVWVKPGGECDGTSDTTAARYDYHCGLEDALKPAPEAGQWFQAYFEQLLRNANPPF														4.7	490	3
